Reference: patent publication US20210347873A1 (SHANGHAI PHARMAEXPLORER, published 2021)

Legend:
human APRIL protein [1] = target: T1, human APRIL protein (human, UniProt O75888 105-250, limits assumed); test: ELISA, coated APRIL; antibody 13.3 nM
T1 construct: Bought protein; also called recombinant APRIL protein
T1 sequence (looked up): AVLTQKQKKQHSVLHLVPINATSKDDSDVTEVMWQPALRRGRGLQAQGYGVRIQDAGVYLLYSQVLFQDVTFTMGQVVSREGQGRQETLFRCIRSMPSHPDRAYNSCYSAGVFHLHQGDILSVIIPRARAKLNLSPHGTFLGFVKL
In short: (§1)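 Human APRIL was coated (1.0 μg/mL, 4 °C overnight), and after blocking, BLyS antibodies bound for 1 h at 37 °C. Detection used HRP secondary antibody and TMB; A450 OD values are reported, with human IgG as control.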

human APRIL protein [2] = target: T1, human APRIL protein; test: ELISA, coated APRIL; antibody 66.7 nM
In short: as §1

human APRIL protein [3] = target: T1, human APRIL protein; test: ELISA, coated APRIL; antibody 0.534 nM
In short: as §1

human APRIL protein [4] = target: T1, human APRIL protein; test: ELISA, coated APRIL; antibody 0 nM (blank)
In short: as §1

[5] = target: T2, human BLyS (full length, arginine to histidine at position 132) on CHO-K1 cells (human, UniProt Q9Y275 1-285); test: flow cytometry, CHO-K1 hBLyS cells, antibody 0 nM
T2 construct: also called hBLyS; CHO-K1 hBLyS
Description: (§2) The medium was aspirated completely, and the cells were rinsed once with PBS buffer (purchased from Invitrogen) and then treated with cell dispersion solution (TrypLE™ Express Enzyme, purchased from Life technology) and collected. The detailed steps are as follows: the cells were rinsed once with PBS buffer, after counting, the cells were diluted to 2×10⁶ cells/ml with PBS buffer, blocked with 2% (w/w) fetal bovine serum and incubated on ice for 30 minutes. 200 μL of which per well was aliquoted into a 96-well FACS plate and centrifuged at 2000 rpm at 4° C., then each 100 μL of the lead antibodies obtained from Embodiment 1 and 2 were aliquoted into each well and incubated on ice for 1 hour. […] After centrifuged and rinsed 3 times with FACS buffer, cells were suspended with 200 μL of FACS buffer and the results were detected and analyzed by FACS (FACS Calibur, purchased from BD). It was shown in Tables 12-13 that the lead antibody could bind to human BLyS protein on the cell surface and the lead antibody could cross-react with cynomolgus BLyS. The data in the table is MFI, the average fluorescence intensity of the cell population.

[6] = target: T3, cynomolgus BLyS (full length, arginine to histidine at position 132) on CHO-K1 cells (cynomolgus, UniProt Q9Y275 1-285 (human entry)); test: flow cytometry, CHO-K1 cynoBLyS cells, antibody 0 nM
T3 construct: also called cyno BLyS; CHO-K1 cynoBLyS
T3 chain: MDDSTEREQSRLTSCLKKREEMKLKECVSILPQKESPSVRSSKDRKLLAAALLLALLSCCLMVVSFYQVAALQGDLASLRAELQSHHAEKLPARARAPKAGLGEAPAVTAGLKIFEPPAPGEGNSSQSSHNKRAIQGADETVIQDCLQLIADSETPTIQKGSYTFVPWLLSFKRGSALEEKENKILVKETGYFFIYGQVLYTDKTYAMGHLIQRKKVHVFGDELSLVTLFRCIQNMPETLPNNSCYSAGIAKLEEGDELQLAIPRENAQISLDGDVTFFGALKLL
Description: as §2

[7] = target: T2, human BLyS (full length, arginine to …); test: flow cytometry, CHO-K1 hBLyS cells, antibody 0.0213 nM
Description: as §2

[8] = target: T2, human BLyS (full length, arginine to …); test: flow cytometry, CHO-K1 hBLyS cells, antibody 0.00427 nM
Description: as §2

[9] = target: T3, cynomolgus BLyS (full length, arginine …); test: flow cytometry, CHO-K1 cynoBLyS cells, antibody 2.67 nM
Description: as §2

[10] = target: T3, cynomolgus BLyS (full length, arginine …); test: flow cytometry, CHO-K1 cynoBLyS cells, antibody 0.107 nM
Description: as §2

[11] = target: T3, cynomolgus BLyS (full length, arginine …); test: flow cytometry, CHO-K1 cynoBLyS cells, antibody 0.0213 nM
Description: as §2

[12] = target: T3, cynomolgus BLyS (full length, arginine …); test: flow cytometry, CHO-K1 cynoBLyS cells, antibody 0.00427 nM
Description: as §2

T2 sequence (Q9Y275 whole entry R130H): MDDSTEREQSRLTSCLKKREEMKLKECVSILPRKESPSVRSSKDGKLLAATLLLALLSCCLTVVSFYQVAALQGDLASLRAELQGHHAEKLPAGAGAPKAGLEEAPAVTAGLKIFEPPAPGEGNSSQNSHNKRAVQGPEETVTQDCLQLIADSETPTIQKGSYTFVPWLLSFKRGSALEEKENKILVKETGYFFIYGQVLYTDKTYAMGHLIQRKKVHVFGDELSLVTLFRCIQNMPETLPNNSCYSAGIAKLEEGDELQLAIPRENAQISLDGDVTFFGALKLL

In the case of mIgG Control (antibody), the OD450 nm (human APRIL protein [1]) is reported as 0.0624, the OD450 nm (human APRIL protein [2]) is reported as 0.102 and the OD450 nm (human APRIL protein [3]) is reported as 0.0536. For the same molecule, the OD450 nm (human APRIL protein [4]) was 0.0716.

With hIgG Control (antibody) the OD450 nm (human APRIL protein [1]) was 0.226, the OD450 nm (human APRIL protein [2]) was 0.477 and the OD450 nm (human APRIL protein [3]) was 0.0793. It also gave an OD450 nm (human APRIL protein [4]) of 0.0711.

B1: 8E7D9C7F5 (antibody, V domains shown)
VH: QVQLQQSGVELARPGASVKLSCKASGYTFTSYGISWVKQRTGQALEWIGEIYPRSGNTYYNEKFKGKATLTADKSSSTAYMELRSLTSEDSAVYFCARSGPITTLVATDYGMDYWGQGTSVTVSS
VL: DIVLTQSPASLAVSLGQRATISCRASKSVSTSSYSYMHWYQQKPGQPPKLLIKFASNLESGVPARFSGSGSGTDFTLNIHPVEEEDAATYYCQHSREFPYTFGGGTKLEIK
notes: Mouse hybridoma monoclonal antibody purified on Protein G
Molecule B1 has an MFI [5] of 152 MFI, an MFI [6] of 19.8 MFI and an MFI [7] of 122 MFI. For the same molecule, the MFI [8] was 67.4 MFI, the MFI [9] was 1130 MFI and the MFI [10] was 477 MFI. It also gave an MFI [11] of 165 MFI and an MFI [12] of 74.4 MFI.

B2: 111D10D6G3 (antibody, V domains shown)
VH: QVQLQQPGAELVKPGASVKMSCKASGYTFTRHWITWVKQRPGQGLEWIGDIFPGSGSINYNEKFKSEATLTVEKSSSTAYMQLSSLTSEDSAVYYCARGDVDVWGTGTTVTVSS
VL: DIQMTQSPSSLSASLGERVSLTCRASQEIRGYLSWLQQKPNGTIKRLIYAASTLDSGVPKRFSATRSGSDFSLTISSLESEDFADYYCLQYASYPFTFGSGTKLEIK
notes: as for B1
With B2 the MFI [5] was 32.4 MFI, the MFI [6] was 20.4 MFI and the MFI [7] was 65.5 MFI. It also gave an MFI [8] of 41.2 MFI, an MFI [9] of 510 MFI and an MFI [10] of 222 MFI. The MFI [11] was 108 MFI and the MFI [12] was 38.8 MFI.

B3: 97A3C2H4 (antibody, V domains shown)
VH: EVKLVESGGGLVQPGGSLKLSCAASGFTFSTYTMSWVRQTPEKRLEWVAYISYGGGSTSYPDTVKGRFTISRDNAKNTLYLQMSSLKSEDTAIYYCTRHVTVVENSMDYWGQGTSVTVSS
VL: DILLTQSPDILSVSPGERVSFSCRASQSIGTSIHWYQQRTNGSPRLLIKYVSESFSGTPSRFSGSGSGTAFTLTINSVESEDIADYYCQQTHSWPWTFGGGTKLEIK
notes: as for B1
In the case of B3, the MFI [5] is reported as 31.2 MFI, the MFI [6] is reported as 20 MFI and the MFI [7] is reported as 69.8 MFI. For the same molecule, the MFI [8] was 44 MFI, the MFI [9] was 956 MFI and the MFI [10] was 243 MFI. It also gave an MFI [11] of 120 MFI and an MFI [12] of 44.3 MFI.

B4: 2-1G11 (antibody, V domains shown)
VH: EVQLVESRGGVVQPGRSLRLSCAASGFTFSSYGMHWVRQAPGKGLEWVAVISYDGSNKYYADSVKGRFTISRDNSKNTLYLQMNSLRAEDAAVYYCARDRVDILTGYSIYGMDVWGQGTTVTVSS
VL: EIVMTQSPATLSLSPGERATLSCRASQSVSSYLAWYQQKPGQAPRLLIYDASKRATGIPARFSGSGSGTDFTLTISSLEPEDFAVYYCQQRSNWPLTFGGGTKVEIK
notes: From a human naive scFv phage library; also called human BLyS antibody 2-1G11
B4 was tested, and the MFI [5] was 186 MFI, the MFI [6] was 21.2 MFI and the MFI [7] was 180 MFI. For the same molecule, the MFI [8] was 107 MFI, the MFI [9] was 1480 MFI and the MFI [10] was 816 MFI. The MFI [11] was 332 MFI and the MFI [12] was 176 MFI.

B5: L9G7 (antibody, V domains shown)
VH: QIQLVQSGAEVKKPGASVKVSCKASGYTFTSYGISWVRQAPGQGLEWMGWISAYNGNTNYAQKLQGRVTMTTDTSTSTAYMELRSLRSDDTAVYYCARTYYDILTGYYYYGMDVWGQGTTVTVSS
VL: EIVLTQSPGTLSLSPGERATLSCRTSQSVDTYLAWYQQKPGQAPRLLIYDASNRATGIPARFSGSGSGTDFTLTISSLEPEDFAVYYCQQRSNWPLTFGGGTKVEIK
notes: From a human naive scFv phage library; also called human BLyS antibody L9G7
In the case of B5, the MFI [5] is reported as 101 MFI, the MFI [6] is reported as 20.6 MFI and the MFI [7] is reported as 93 MFI. The MFI [8] was 51.6 MFI, the MFI [9] was 1280 MFI and the MFI [10] was 387 MFI. For the same molecule, the MFI [11] was 143 MFI and the MFI [12] was 63.5 MFI.

B6: L1D12 (antibody, V domains shown)
VH: QVQLVQSGGGLVQPGGSLRLSCAASGFTVSSNYMSWVRQAPGKGLEWVSVIYSGGSTYYADSVKGRFTISRDNSKNTLYLQMNSLRAEDTAVYYCARGFHDILTGYGMDVWGQGTTVTVSS
VL: SSELTQDPAVSVALGQTVRITCQGDSLRNYYAGWYQQKPGQAPVLVIYGKNNRPSGIPDRFSGSSSGNTASLTITGTQAEDEADYYCSSRDNSGTHLVEFGGGTKLTVL
notes: From a human naive scFv phage library; also called human BLyS antibody L1D12; LID12
B6 gave an MFI [5] of 101 MFI, an MFI [6] of 21.2 MFI and an MFI [7] of 89.5 MFI. The MFI [8] was 54.4 MFI, the MFI [9] was 1170 MFI and the MFI [10] was 364 MFI. It also gave an MFI [11] of 135 MFI and an MFI [12] of 66.7 MFI.

B7: 97A3C2H4 (antibody, V domains shown)
VH: EVKLVESGGGLVQPGGSLKLSCAASGFTFSTYTMSWVRQTPEKRLEWVAYISYGGGSTSYPDTVKGRFTISRDNAKNTLYLQMSSLKSEDTAIYYCTRHVTVVENSMDYWGQGTSVTVSS
VL: DILLTQSPDILSVSPGERVSFSCRASQSIGTSIHWYQQRTNGSPRLLIKYVSESFSGTPSRFSGSGSGTAFTLTINSVESEDIADYYCQQTHSWPWTFGGGTKLEIK
notes: Mouse hybridoma antibody purified on Protein G
B7 gave an OD450 nm (human APRIL protein [1]) of 0.0848, an OD450 nm (human APRIL protein [2]) of 0.173 and an OD450 nm (human APRIL protein [3]) of 0.059. The OD450 nm (human APRIL protein [4]) was 0.0566.

B8: 111D10D6G3 (antibody, V domains shown)
VH: QVQLQQPGAELVKPGASVKMSCKASGYTFTRHWITWVKQRPGQGLEWIGDIFPGSGSINYNEKFKSEATLTVEKSSSTAYMQLSSLTSEDSAVYYCARGDVDVWGTGTTVTVSS
VL: DIQMTQSPSSLSASLGERVSLTCRASQEIRGYLSWLQQKPNGTIKRLIYAASTLDSGVPKRFSATRSGSDFSLTISSLESEDFADYYCLQYASYPFTFGSGTKLEIK
notes: as for B7
In the case of B8, the OD450 nm (human APRIL protein [1]) is reported as 0.0573, the OD450 nm (human APRIL protein [2]) is reported as 0.0681 and the OD450 nm (human APRIL protein [3]) is reported as 0.0525. The OD450 nm (human APRIL protein [4]) was 0.0547.

B9: L9G7 (antibody, human IgG1, V domains shown)
VH: QIQLVQSGAEVKKPGASVKVSCKASGYTFTSYGISWVRQAPGQGLEWMGWISAYNGNTNYAQKLQGRVTMTTDTSTSTAYMELRSLRSDDTAVYYCARTYYDILTGYYYYGMDVWGQGTTVTVSS
VL: EIVLTQSPGTLSLSPGERATLSCRTSQSVDTYLAWYQQKPGQAPRLLIYDASNRATGIPARFSGSGSGTDFTLTISSLEPEDFAVYYCQQRSNWPLTFGGGTKVEIK
For B9, the OD450 nm (human APRIL protein [1]) was 0.107, the OD450 nm (human APRIL protein [2]) was 0.276 and the OD450 nm (human APRIL protein [3]) was 0.0741. The OD450 nm (human APRIL protein [4]) was 0.0638.

B10: L1D12 (antibody, human IgG1, V domains shown)
VH: QVQLVQSGGGLVQPGGSLRLSCAASGFTVSSNYMSWVRQAPGKGLEWVSVIYSGGSTYYADSVKGRFTISRDNSKNTLYLQMNSLRAEDTAVYYCARGFHDILTGYGMDVWGQGTTVTVSS
VL: SSELTQDPAVSVALGQTVRITCQGDSLRNYYAGWYQQKPGQAPVLVIYGKNNRPSGIPDRFSGSSSGNTASLTITGTQAEDEADYYCSSRDNSGTHLVEFGGGTKLTVL
notes: also called LID12
For B10, the OD450 nm (human APRIL protein [1]) was 0.124, the OD450 nm (human APRIL protein [2]) was 0.133 and the OD450 nm (human APRIL protein [3]) was 0.0757. It also gave an OD450 nm (human APRIL protein [4]) of 0.0625.
